Measurements as given in IntAct's records for PubMed 10659709.

B1: Regulatory protein NPR1 (Arabidopsis thaliana (Mouse-ear cress)), P93002 (parent)
chain: MDTTIDGFADSYEISSTSFVATDNTDSSIVYLAAEQVLTGPDVSALQLLSNSFESVFDSPDDFYSDAKLVLSDGREVSFHRCVLSARSSFFKSALAAAKKEKDSNNTAAVKLELKEIAKDYEVGFDSVVTVLAYVYSSRVRPPPKGVSECADENCCHVACRPAVDFMLEVLYLAFIFKIPELITLYQRHLLDVVDKVVIEDTLVILKLANICGKACMKLLDRCKEIIVKSNVDMVSLEKSLPEELVKEIIDRRKELGLEVPKVKKHVSNVHKALDSDDIELVKLLLKEDHTNLDDACALHFAVAYCNVKTATDLLKLDLADVNHRNPRGYTVLHVAAMRKEPQLILSLLEKGASASEATLEGRTALMIAKQATMAVECNNIPEQCKHSLKGRLCVEILEQEDKREQIPRDVPPSFAVAADELKMTLLDLENRVALAQRLFPTEAQAAMEIAEMKGTCEFIVTSLEPDRLTGTKRTSPGVKIAPFRILEEHQSRLKALSKTVELGKRFFPRCSAVLDQIMNCEDLTQLACGEDDTAEKRLQKKQRYMEIQETLKKAFSEDNLELGNSSLTDSTSSTSKSTGGKRSNRKLSHRRR
partner: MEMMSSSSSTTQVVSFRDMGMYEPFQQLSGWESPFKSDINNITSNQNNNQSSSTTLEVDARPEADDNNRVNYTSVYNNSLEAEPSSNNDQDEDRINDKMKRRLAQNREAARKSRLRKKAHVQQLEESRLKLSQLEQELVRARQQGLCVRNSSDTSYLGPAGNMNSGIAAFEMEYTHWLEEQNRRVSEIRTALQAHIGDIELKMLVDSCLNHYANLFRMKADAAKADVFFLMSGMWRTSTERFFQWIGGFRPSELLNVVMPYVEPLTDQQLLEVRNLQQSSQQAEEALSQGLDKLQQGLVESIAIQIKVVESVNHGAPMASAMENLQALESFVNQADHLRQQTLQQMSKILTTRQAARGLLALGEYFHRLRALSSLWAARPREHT
B2: Regulatory protein NPR1 (Arabidopsis thaliana (Mouse-ear cress)), P93002 (parent)
chain: B1 chain
partner: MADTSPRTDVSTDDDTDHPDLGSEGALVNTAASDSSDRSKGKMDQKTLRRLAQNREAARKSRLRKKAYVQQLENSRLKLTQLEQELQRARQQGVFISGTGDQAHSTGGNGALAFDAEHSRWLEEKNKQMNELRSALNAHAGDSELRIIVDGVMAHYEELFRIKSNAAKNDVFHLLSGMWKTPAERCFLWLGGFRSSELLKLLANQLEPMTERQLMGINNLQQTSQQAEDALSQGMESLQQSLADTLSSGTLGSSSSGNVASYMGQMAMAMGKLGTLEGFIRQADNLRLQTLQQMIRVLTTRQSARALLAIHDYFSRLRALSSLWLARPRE

Variants of: B1
Conditions: with tga3_arath TGA3, Q39234

| effect of a mutation on the interaction | Variant |
| --- | --- |
| decreasing interaction strength | H300Y |
| decreasing interaction strength | P342S |
| decreasing interaction strength | H334Y |
| decreasing interaction strength | C150Y |

Variants of: B2
Conditions: with tga2_arath TGA2, P43273

| effect of a mutation on the interaction | Variant |
| --- | --- |
| disrupting interaction | H300Y |
| disrupting interaction | C150Y |
| disrupting interaction | H334Y |
| disrupting interaction | P342S |
